Assay results as given in US20240117030A1 (Pfizer, published 2024).

T1: human IL-4 (human, UniProt P05112 25-153)
T1 sequence (looked up): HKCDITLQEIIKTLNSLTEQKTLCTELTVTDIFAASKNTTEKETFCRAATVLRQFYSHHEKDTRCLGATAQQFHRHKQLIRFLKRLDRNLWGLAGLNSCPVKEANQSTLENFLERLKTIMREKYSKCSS

T2: recombinant human IL-33 (wild type, Ser112-Thr270) (human, UniProt O95760 112-270)
T2 sequence (looked up): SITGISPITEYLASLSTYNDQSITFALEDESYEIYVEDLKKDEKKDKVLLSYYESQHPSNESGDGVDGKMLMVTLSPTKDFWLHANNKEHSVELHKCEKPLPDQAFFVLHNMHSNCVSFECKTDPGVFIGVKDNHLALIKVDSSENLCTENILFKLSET

T3: human IL-12 (p35 + p40) (human, UniProt P29459 23-219; P29460 23-328)
T3 sequence (looked up) 1: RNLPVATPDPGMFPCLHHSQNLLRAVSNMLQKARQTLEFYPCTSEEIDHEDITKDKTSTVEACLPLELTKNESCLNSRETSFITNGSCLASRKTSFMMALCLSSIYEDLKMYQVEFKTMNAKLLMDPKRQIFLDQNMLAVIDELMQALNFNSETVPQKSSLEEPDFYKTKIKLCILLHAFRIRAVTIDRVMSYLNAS
T3 sequence (looked up) 2: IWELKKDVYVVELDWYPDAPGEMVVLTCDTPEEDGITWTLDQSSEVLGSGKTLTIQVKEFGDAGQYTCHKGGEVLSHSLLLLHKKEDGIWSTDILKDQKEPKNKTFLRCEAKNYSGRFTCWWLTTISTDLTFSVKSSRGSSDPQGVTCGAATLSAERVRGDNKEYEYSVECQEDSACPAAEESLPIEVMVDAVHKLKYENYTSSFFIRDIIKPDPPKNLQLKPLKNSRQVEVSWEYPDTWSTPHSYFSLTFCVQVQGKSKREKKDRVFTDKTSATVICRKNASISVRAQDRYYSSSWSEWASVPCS


Columns and labels:
Test in all cases: cell-based or functional assay
[1] = target: T1, human IL-4
[2] = target: human IL-13 (human, UniProt P35225 35-146)
Sequence of human IL-13 (P35225 35-146 limits assumed): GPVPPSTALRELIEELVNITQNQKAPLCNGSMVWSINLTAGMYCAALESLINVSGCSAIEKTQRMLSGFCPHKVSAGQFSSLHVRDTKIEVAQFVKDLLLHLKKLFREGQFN

[3] = target: T2, recombinant human IL-33 (wild type, …)
[4] = target: T3, human IL-12 (p35 + p40)

| a-hIL-4 IC50 [pM] [1] [pM] | a-hIL-13 IC50 [pM] [2] [pM] | a-IL-33 bioassay (WT) IC50 [pM] [3] [pM] | anti-IL12 bioassay IC50 [4] [nM] | Binder |
| --- | --- | --- | --- | --- |
| 7.1 | 12.4 | 28 |  | IL13433-1042 (other) heavy: EVQLVESGGGLVQPGGSLRLSCAASGFTFSSYWMYWVRQAPGKGLEWVAAITPNAGEDYYPESVKGRFTISRDNAKNSLYLQMNSLRAEDTAVYYCARGQYYYTKYSLGYWGQGTLVTVSSASTKGPSVFPLAPSSKSTSGGTAALGCLVKDYFPEPVTVSWNSGALTSGVHTFPAVLQSSGLYSLSSVVTVPSSSLGTQTYICNVNHKPSNTKVDKKVEPKSCRKTHTCPRCPAPEAAGAPSVFLFPPKPKDTLMISRTPEVTCVVVDVSHEDPEVKFNWYVDGVEVHNAKTKPREEQYNSTYRVVSVLTVLHQDWLNGKEYKCKVSNKALPAPIEKTISKAKGQPREPQVYTLPPSREEMTKNQVSLTCLVKGFYPSDIAVEWESNGQPENNYKTTPPVLDSDGSFFLYSRLTVDKSRWQQGNVFSCSVLHEALHSHYTQKSLSLSPGK chain 1: DIQMTQSPSSLSASVGDRVTITCKASESVDHFGWSLVHWYQQKPGKAPKLLIYRASNLESGVPSRFSGSGSGTDFTLTISSLQPEDFATYYCQQSNEDPWTFGGGTKVEIKRTVAAPSVFIFPPSDEQLKSGTASVVCLLNNFYPREAKVQWKVDNALQSGNSQESVTEQDSKDSTYSLSSTLTLSKADYEKHKVYACEVTHQGLSSPVTKSFNRGECGGGGSEVTLRESGPALVKPTQTLTLTCTFSGFSLSNFGEGLSWIRQPPGKGLEWLAHIYWDDDKRYNPSLKSRLTISKDTSRNQVVLTMTNMDPVDTATYYCARRETVFYWYFDVWGQGTTVTVSSASTKGPSVFPLAPSSKSTSGGTAALGCLVKDYFPEPVTVSWNSGALTSGVHTFPAVLQSSGLYSLSSVVTVPSSSLGTQTYICNVNHKPSNTKVDKKVEPKSCEKTHTCPECPAPEAAGAPSVFLFPPKPKDTLMISRTPEVTCVVVDVSHEDPEVKFNWYVDGVEVHNAKTKPREEQYNSTYRVVSVLTVLHQDWLNGKEYKCKVSNKALPAPIEKTISKAKGQPREPQVYTLPPSREEMTKNQVSLTCEVKGFYPSDIAVEWESNGQPENNYKTTPPVLDSDGSFFLYSKLTVDKSRWQQGNVFSCSVLHEALHSHYTQKSLSLSPGK light 1: DIQMTQSPSSLSASVGDRVTITCRASQPIHNHLDWYQQKPGKAPKLLIYFGKNLQEGVPSRFSGSGSGTDFTLTISSLQPEDFATYYCFQYKKGWSFGGGTKVEIKRTVAAPSVFIFPPSDEQLKSGTASVVCLLNNFYPREAKVQWKVDNALQSGNSQESVTEQDSKDSTYSLSSTLTLSKADYEKHKVYACEVTHQGLSSPVTKSFNRGEC light 2: DIQMTQSPSSLSASVGDRVTITCRASQSVDEEGDSYMNWYQQKPGKAPKLLIYAASNLESGVPSRFSGSGSGTDFTLTISSLQPEDFATYYCQQSNEDPPTFGGGTKVEIKRTVAAPSVFIFPPSDEQLKSGTASVVCLLNNFYPREAKVQWKVDNALQSGNSQESVTEQDSKDSTYSLSSTLTLSKADYEKHKVYACEVTHQGLSSPVTKSFNRGEC chain 2: EVQLVESGGGLVQPGGSLRLSCAASGFTFSSYAMSWVRQAPGKGLEWVASISSGDTTYYPDSVKGRFTISRDNAKNSLYLQMNSLRAEDTAVYYCARNEGYYFGLTLWGQGTLVTVSSASTKGPSVFPLAPSSKSTSGGTAALGCLVKDYFPEPVTVSWNSGALTSGVHTFPAVLQSSGLYSLSSVVTVPSSSLGTQTYICNVNHKPSNTKVDKKVEPKSC |
|  |  |  | 0.286 | p40-0003 (antibody, human IgG1, kappa, V domains shown) VH: EVQLVQSGAEVKKPGESLKISCKGSGYSFTTYWLGWVRQMPGKGLDWIGIMSPVDSDIRYSPSFQGQVTMSVDKSITTAYLQWNSLKASDTAMYYCARRRPGQGYFDFWGQGTLVTVSS VL: DIQMTQSPSSLSASVGDRVTITCRASQGISSWLAWYQQKPEKAPKSLIYAASSLQSGVPSRFSGSGSGTDFTLTISSLQPEDFATYYCQQYNIYPYTFGQGTKLEIKR |
